Results on four molecules are retold here after article PMC8496732, “RAB33B recruits the ATG16L1 complex to the phagophore via a noncanonical RAB binding protein” (Autophagy, 2020).

Holding throughout (conditions): both partners purified
Experiment [1] has as its target T1, RAB33B wild type, 6xHis, labeled with Tide Fluor 3 (human, UniProt Q9H082 1-229, labeled with Tide Fluor 3 (TF3) maleimide).
T1 construct: RAB33B, human; Loaded with GppNHp or GDP by nucleotide exchange; The crystal construct is 30–218; also called WT^GppNHp; WT^GDP
T1 sequence (looked up): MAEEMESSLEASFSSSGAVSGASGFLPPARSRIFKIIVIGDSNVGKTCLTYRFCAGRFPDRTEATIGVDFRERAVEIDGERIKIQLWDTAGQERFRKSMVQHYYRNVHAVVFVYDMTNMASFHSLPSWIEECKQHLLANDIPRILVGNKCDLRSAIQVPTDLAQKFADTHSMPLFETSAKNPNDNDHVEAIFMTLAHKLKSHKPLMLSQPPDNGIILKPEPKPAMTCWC
In words: MST; TF3-labeled RAB33B at 10 μM, GDP-bound; unlabeled ATG16L1(141–265) titrated from 400 μM to 12 nM; 20 mM HEPES pH 7.2, 25 mM NaCl, 2 mM DTE, 2 mM MgCl2, 0.05% Tween 20, 10 µM GDP.

Experiment [2] has as its target T2, RAB33B F95A, 6xHis, labeled with Tide Fluor 3 (human, UniProt Q9H082 1-229, F95A, labeled with Tide Fluor 3 (TF3) maleimide).
T2 construct: RAB33B, human, F95A; also called F95A^GppNHp
T2 sequence (looked up): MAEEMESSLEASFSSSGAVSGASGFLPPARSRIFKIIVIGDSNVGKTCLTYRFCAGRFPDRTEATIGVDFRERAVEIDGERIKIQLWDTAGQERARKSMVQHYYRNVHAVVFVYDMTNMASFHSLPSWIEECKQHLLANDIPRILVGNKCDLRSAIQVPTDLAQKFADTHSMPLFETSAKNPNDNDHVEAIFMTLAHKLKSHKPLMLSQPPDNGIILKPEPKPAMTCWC
In words: MST; TF3-labeled RAB33B at 10 μM, GppNHp-bound; unlabeled ATG16L1(141–265) titrated from 400 μM to 12 nM; 20 mM HEPES pH 7.2, 25 mM NaCl, 2 mM DTE, 2 mM MgCl2, 0.05% Tween 20, 10 µM GppNHp.

Experiment [3] concerns the target T3, RAB33B I66A, 6xHis, labeled with Tide Fluor 3 (human, UniProt Q9H082 1-229, I66A, labeled with Tide Fluor 3 (TF3) maleimide).
T3 construct: RAB33B, human, I66A; also called I66A^GppNHp
T3 sequence (looked up): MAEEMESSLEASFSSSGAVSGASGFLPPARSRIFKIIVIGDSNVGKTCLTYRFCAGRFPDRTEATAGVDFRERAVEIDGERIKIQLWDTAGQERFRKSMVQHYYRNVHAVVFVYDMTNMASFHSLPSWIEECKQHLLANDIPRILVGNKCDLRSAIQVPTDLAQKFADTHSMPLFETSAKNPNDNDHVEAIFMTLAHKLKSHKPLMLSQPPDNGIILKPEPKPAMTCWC
The experiment is described as above.

Experiment [4] deals with T1, RAB33B wild type, 6xHis, labeled with …. The experiment is described as above.
Experiment [5] concerns the target T4, RAB33B K35A, 6xHis, labeled with Tide Fluor 3 (human, UniProt Q9H082 1-229, K35A, labeled with Tide Fluor 3 (TF3) maleimide).
T4 construct: RAB33B, human, K35A; also called K35A^GppNHp
T4 sequence (looked up): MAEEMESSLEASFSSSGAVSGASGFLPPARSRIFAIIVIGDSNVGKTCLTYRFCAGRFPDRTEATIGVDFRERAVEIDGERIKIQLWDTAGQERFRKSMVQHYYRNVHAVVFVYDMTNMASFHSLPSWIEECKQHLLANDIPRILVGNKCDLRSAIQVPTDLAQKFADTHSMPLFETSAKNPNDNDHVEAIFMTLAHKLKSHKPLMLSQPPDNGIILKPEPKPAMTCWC
Described as above.

The term Kd denotes the equilibrium constant for the complex coming apart. A higher Kd goes with lower affinity.

B1: ATG16L1(141–265) wild type, expressed separately (domain or fragment, UniProt Q8C0J2 141-265, looked up)
chain: LETNCLDLRTKLQDLEVANQTLKDEYDALQITFTALEEKLRKTTEENQELVTRWMAEKAQEANRLNAENEKDSRRRQARLQKELAEAAKEPLPVEQDDDIEVIVDETSDHTEETSPVRAVSRAAT
notes: pOPIN vector with GST tag; also called WT
B1: the Kd was 0.213 µM in experiment [1]; 17.1 µM in experiment [2]; 25.9 µM in experiment [3]; 0.095 µM in experiment [4]; above 100 µM in experiment [5].

B2: ATG16L1(141–265) N206A,N209A (domain or fragment, UniProt Q8C0J2 141-265, looked up)
chain: LETNCLDLRTKLQDLEVANQTLKDEYDALQITFTALEEKLRKTTEENQELVTRWMAEKAQEANRLAAEAEKDSRRRQARLQKELAEAAKEPLPVEQDDDIEVIVDETSDHTEETSPVRAVSRAAT
Turning to B2, the Kd in experiment [4] turned out to be 24.1 µM. That is a double-digit micromolar value.

B3: ATG16L1(141–265) N206A (domain or fragment, UniProt Q8C0J2 141-265, looked up)
chain: LETNCLDLRTKLQDLEVANQTLKDEYDALQITFTALEEKLRKTTEENQELVTRWMAEKAQEANRLAAENEKDSRRRQARLQKELAEAAKEPLPVEQDDDIEVIVDETSDHTEETSPVRAVSRAAT
B3 displayed a Kd in experiment [4] of 3.38 µM.

B4: ATG16L1(141–265) N209A (domain or fragment, UniProt Q8C0J2 141-265, looked up)
chain: LETNCLDLRTKLQDLEVANQTLKDEYDALQITFTALEEKLRKTTEENQELVTRWMAEKAQEANRLNAEAEKDSRRRQARLQKELAEAAKEPLPVEQDDDIEVIVDETSDHTEETSPVRAVSRAAT
B4 gave a Kd in experiment [4] of 0.884 µM.
